Values of other authors in publication PMC2775921.
Where two headings read alike, the source gives them in different places.

Assays:
IL-2 (Homo sapiens) [1] = biological target: IL-2 (Homo sapiens) (UniProt P60568)
IL-2 (Homo sapiens) [2] = biological target: IL-2 (Homo sapiens) (UniProt P60568); remark: listed apart in the source

UniProt P60568, sequence (P60568 21-153): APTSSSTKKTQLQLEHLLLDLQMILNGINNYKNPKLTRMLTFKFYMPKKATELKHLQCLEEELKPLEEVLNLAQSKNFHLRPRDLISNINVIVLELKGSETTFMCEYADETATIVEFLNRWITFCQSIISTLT

Kd (IL-2 (Homo sapiens) [1]) | Kd (IL-2 (Homo sapiens) [2]) | Substance
10 nM | – | CD25 (membrane α-chain) (from UniProt P01589)
– | 30 nM | soluble CD25 (from UniProt P01589)
